Measurements published in patent US20220380801A1, “TRIPARTITE SYSTEMS FOR PROTEIN DIMERIZATION AND METHODS OF USE” (priority 2019, published 2022).

System: NanoLuc-PEST reporter in HEK293 cells
Assay: Transcriptional regulation assay (split transcription factor), NanoLuc-PEST reporter
Type: cell-based, human
Description: The iDimerize regulated transcription system (Takara) was used to test the ability of PRSIM-based CIDs to regulate gene expression. […] The DBD and AD are separately fused to the two protein components of a CID such that, only in the presence of the small molecule inducer, the AD is brought into close proximity to the DBD, recruiting the transcription machinery to a promoter harbouring the DBD recognition sites. The iDimerize regulated transcription system (Takara) provides two vectors, pHet-Act1-2 and pZFHD1-Luciferase. […]
All transcriptional regulation assays were performed in adherent HEK293 cells cultured in 384-well plates. Cells enzymatically dissociated from a tissue culture flask were counted and plated at 7.5×10^3 cells/well in a 384-well plate. […] On day 3, wells were treated with different concentrations of either A/C heterodimeriser (for the FRB:FKBP12 control), simeprevir or with vehicle control, and 24 hours later luminescence was quantified with an Envision plate reader immediately following addition of SteadyGlo luciferase substrate (Promega) or Nano-Glo Vivazine luciferase substrate (Promega). Alternatively, reverse transfections were carried out on Day 1, addition of dimeriser on Day 2 and luminescence quantified 24 hours later on Day 3. […]

B1: PRSIM_23: Tn3 protein specific for HCV NS3/4A PR (S139A):simeprevir complex, SEQ ID NO: 5 (protein)
chain: RLDAPSQIEVKDVTDTTALITWVDPRYDDIWWFELTYGIKDVPGDRTTIKLYLNDPYYSIGNLKPDTEYEVSLISYTGDSYSRSGSNPAKITFKTGL
modifications: PRSIM_23
Question: What does the source list for B1?
Answer: fold change of NanoLuc-PEST expression (one copy of the DBD fusion partner): 55 fold; fold change of NanoLuc-PEST expression (three copies of the DBD fusion partner): 100 fold
